Assays:
Assay in all cases: Bio-Plex bead immunoassay, multiplexed beads, single antigen, single detection antibody
[1] = biological target: recombinant SPON1 protein (R&D Systems Cat. # 3135-SP/CF) (Homo sapiens (Human)) (UniProt Q9HCB6)
[2] = biological target: recombinant MIA protein (R&D Systems DuoSet Cat. # DY2050) (human) (UniProt Q16674)
[3] = biological target: recombinant MIC-1 protein (R&D Systems DuoSet Cat. # DY957) (human) (UniProt Q99988)
[4] = biological target: recombinant OPN protein (R&D Systems Cat. # 1433-OP-050) (Homo sapiens (Human)) (UniProt P10451)
UniProt P10451, sequence (P10451 other isoform, or with tags, fused parts or gaps limits assumed): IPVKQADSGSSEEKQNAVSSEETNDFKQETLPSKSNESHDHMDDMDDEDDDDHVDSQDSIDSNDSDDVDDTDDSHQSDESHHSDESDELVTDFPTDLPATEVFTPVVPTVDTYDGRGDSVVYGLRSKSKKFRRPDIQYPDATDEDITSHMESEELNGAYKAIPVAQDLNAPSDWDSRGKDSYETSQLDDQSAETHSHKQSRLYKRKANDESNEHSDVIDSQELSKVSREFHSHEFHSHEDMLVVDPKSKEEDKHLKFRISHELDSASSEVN

[5] = biological target: recombinant HSP27 protein (R&D Systems DuoSet Cat. # DY1580) (human) (UniProt P04792)
UniProt P04792, sequence (P04792 whole entry): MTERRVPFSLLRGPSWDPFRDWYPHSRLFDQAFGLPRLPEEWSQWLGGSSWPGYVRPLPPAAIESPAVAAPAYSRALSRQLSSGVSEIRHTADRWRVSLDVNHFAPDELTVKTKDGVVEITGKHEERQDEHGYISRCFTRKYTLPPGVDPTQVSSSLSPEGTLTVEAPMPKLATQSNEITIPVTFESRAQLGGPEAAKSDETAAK

[6] = biological target: recombinant CEACAM-1 protein (R&D Systems DuoSet Cat. # DY2244) (human) (UniProt P13688)
UniProt P13688, sequence (P13688 35-428 limits assumed): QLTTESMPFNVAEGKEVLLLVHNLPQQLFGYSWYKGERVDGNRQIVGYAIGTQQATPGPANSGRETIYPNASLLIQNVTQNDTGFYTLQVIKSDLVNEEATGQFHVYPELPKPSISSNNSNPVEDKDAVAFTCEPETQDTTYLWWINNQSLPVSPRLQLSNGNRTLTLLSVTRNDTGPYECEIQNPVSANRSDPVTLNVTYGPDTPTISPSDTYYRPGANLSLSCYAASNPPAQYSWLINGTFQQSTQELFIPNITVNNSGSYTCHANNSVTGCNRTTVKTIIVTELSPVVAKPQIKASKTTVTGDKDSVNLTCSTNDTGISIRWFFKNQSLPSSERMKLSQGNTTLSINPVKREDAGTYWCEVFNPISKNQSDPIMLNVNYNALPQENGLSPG

UniProt Q16674, sequence (Q16674 25-131 limits assumed): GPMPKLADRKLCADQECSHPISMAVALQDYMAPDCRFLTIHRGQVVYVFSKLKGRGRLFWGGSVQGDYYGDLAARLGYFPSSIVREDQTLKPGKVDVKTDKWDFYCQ
UniProt Q9HCB6, sequence (Q9HCB6 29-807 limits assumed): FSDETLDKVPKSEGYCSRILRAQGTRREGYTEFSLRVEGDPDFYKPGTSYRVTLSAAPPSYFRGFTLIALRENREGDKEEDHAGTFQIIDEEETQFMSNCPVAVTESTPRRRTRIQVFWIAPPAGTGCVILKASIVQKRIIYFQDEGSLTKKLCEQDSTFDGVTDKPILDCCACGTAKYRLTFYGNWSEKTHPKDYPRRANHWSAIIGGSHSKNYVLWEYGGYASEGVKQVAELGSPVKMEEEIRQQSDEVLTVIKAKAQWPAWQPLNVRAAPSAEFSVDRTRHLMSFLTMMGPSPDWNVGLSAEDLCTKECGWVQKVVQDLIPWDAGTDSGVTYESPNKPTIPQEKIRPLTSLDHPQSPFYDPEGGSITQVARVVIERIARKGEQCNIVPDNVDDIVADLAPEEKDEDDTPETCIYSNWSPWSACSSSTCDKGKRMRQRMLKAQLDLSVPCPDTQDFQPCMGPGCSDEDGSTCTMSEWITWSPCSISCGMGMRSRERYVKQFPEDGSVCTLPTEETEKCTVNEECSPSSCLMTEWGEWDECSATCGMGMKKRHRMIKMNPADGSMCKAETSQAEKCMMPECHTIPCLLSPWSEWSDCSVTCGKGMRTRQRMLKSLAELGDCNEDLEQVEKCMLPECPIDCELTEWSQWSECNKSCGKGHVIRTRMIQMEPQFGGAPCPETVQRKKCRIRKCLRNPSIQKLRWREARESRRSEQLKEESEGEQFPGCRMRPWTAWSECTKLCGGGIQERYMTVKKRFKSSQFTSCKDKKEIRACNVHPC
UniProt Q99988, sequence (Q99988 197-308 limits assumed): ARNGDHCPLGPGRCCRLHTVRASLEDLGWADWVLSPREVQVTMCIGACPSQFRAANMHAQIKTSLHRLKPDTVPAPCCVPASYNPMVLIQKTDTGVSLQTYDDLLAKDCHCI

| % cross-reactivity (single-detection antibody) [1] [%] | % cross-reactivity (single-detection antibody) [2] [%] | % cross-reactivity (single-detection antibody) [3] [%] | % cross-reactivity (single-detection antibody) [4] [%] | % cross-reactivity (single-detection antibody) [5] [%] | % cross-reactivity (single-detection antibody) [6] [%] | Substance |
| --- | --- | --- | --- | --- | --- | --- |
| 0 | 0.2 | 0 | 0 | 0 | – | CEACAM-1 capture antibody (R&D Systems DuoSet Cat. # DY2244, mouse) |
| 0.3 | – | 0.1 | 0.3 | 0.1 | 0.4 | MIA capture antibody (R&D Systems DuoSet Cat. # DY2050, mouse) |
| 0 | 0 | – | 0 | 0 | 0 | MIC-1 capture antibody (R&D Systems DuoSet Cat. # DY957, mouse) |
| 0 | 0 | 0 | – | 0 | 0 | OPN capture antibody (R&D Systems Cat. # MAB14332, mouse) |

— patent US20180216194A1
